# Assay results from patent US20220162338A1 (SICHUAN KELUN BIOTECH BIOPHARMACEUTICAL, published 2022).
# Tests used:
# [1] = target: T1, human FXIa (activated human coagulation Factor XI) (human, UniProt P03951 19-387; P03951 388-625); experiment: cell-based or functional assay
# [2] = target: T1, human FXIa (activated human coagulation …); experiment: cell-based or functional assay; remark: listed apart in the source
# [3] = target: T1, human FXIa (activated human coagulation …); experiment: cell-based or functional assay; remark: listed apart in the source
# [4] = target: T1, human FXIa (activated human coagulation …); experiment: ELISA, FXIa coated at 1 µg/mL, HRP goat-anti-human detection
# [5] = target: T2, human FXI antigen expressed in 293F cells (human, UniProt P03951 19-625, limits assumed); experiment: ELISA, FXI antigen (293F) coated at 1 µg/mL, HRP goat-anti-human detection
# T2 construct: also called FXI antigen (PMD-F11 plasmid cloned into PLVX-IRES-PURO, 293F)
# [6] = target: T3, human FXI (human coagulation Factor XI) (human, UniProt P03951 19-625); experiment: BLI (Octet Fortebio), antibody on AHC (anti-human-Fc) sensor, FXI in solution
# T3 construct: Bought protein; Biotin-labeled form (HCXI-0150-B) was used in the hybridoma screen; also called FXI protein; FXI antigen
# Protocol: Octet Fortebio® was used for the affinity determination of chimeric and humanized antibodies. […] The data obtained were analyzed by Octet data analysis software.
# [7] = target: T1, human FXIa (activated human coagulation …); experiment: BLI (Octet ForteBio), ratio of KD against 14E11
# Protocol: (§1) The specific experimental steps were as follows: the streptavidin biosensors was first bound with the biotin-labeled antibody to be tested to reach a response signal value of 0.8 nm, then bound with FXIa protein (3.2, 1.6, 0.8, 0.4, 0.2, 0.1, 0.05, and 0 μg/mL) for 5 minutes, then dissociation was performed for 7 minutes, and the bivalent analysis model was used for all fitting analysis.
# [8] = target: T1, human FXIa (activated human coagulation …); experiment: BLI (Octet ForteBio), ratio of KD against BAY-1213790
# Protocol: as §1
# [9] = target: T1, human FXIa (activated human coagulation …); experiment: BLI (Octet ForteBio), biotin-labeled antibody on streptavidin sensor, FXIa in solution, bivalent model
# Protocol: as §1
Binder,Kd [6] [pM],koff [6] [s⁻¹],kon [6] [M⁻¹ s⁻¹],also measured
"humanized antibody 36G9.10-hz73 (antibody, human IgG1, kappa, N297A, V domains shown) VH: EVQLVQSGAEVKKPGATVKISCKASGFNIKDTYIHWVQQAPGKGLEWMGRIDPANDNTIYAEKFQGRVTITADTSTNTAYMELSSLRSEDTAVYYCAQDYDGFAMDYWGQGTLVTVSS VL: DIQMTQSPSSLSASVGDRVTITCKASQDINKYITWFQQKPGKAPKLLIHYTSTLQPGVPSRFSGSGSGRDYTLTISSLQPEDFATYYCLQYDYLLTFGGGTKVEIKR",10.3,6.51e-05,6.31e+06,"APTT in human plasma, fold prolongation [1]: 2.2 times; IC50 value (ng/mL), inhibition of the catalytic effect of FXIa on fluorescent substrate I-1575 [2]: 26.2 ng/mL; APTT detection (EC50, nM), sample at 0 days [3]: 18.4 nM; APTT detection (EC50, nM), sample stored at 25° C. for 28 days [3]: 17.4 nM; APTT detection (EC50, nM), sample stored at 40° C. for 14 days [3]: 20.3 nM; APTT detection (EC50, nM), sample stored at 40° C. for 28 days [3]: 26.9 nM; EC50 [4]: 2.49 ng/mL; EC50 [5]: 9.68 ng/mL"
"humanized antibody 36G9.10-hz92 (antibody, human IgG1, kappa, N297A, V domains shown) VH: EVQLVQSGAEVKKPGATVKISCKASGFNIKDTYIHWVQQAPGKGLEWIGRIDPANDNTKYDPKFQGRVTITADTSTNTAYMELSSLRSEDTAVYYCAQDYDGFAMDYWGQGTLVTVSS VL: DIQMTQSPSSLSASVGDRVTITCKASQDINKYITWFQQKPGKAPKLLIHYTSTLQPGVPSRFSGSGSGTDFTLTISSLQPEDFATYYCLQYDYLLTFGGGTKVEIKR",15.2,7.69e-05,5.07e+06,–
"humanized antibody 36G9.10-hz93 (antibody, human IgG1, kappa, N297A, V domains shown) VH: EVQLVQSGAEVKKPGATVKISCKASGFNIKDTYIHWVQQAPGKGLEWIGRIDPANDNTKYDPKFQGRVTITADTSTNTAYMELSSLRSEDTAVYYCAQDYDGFAMDYWGQGTLVTVSS VL: DIQMTQSPSSLSASVGDRVTITCKASQDINKYITWFQQKPGKAPKLLIHYTSTLQPGVPSRFSGSGSGRDYTLTISSLQPEDFATYYCLQYDYLLTFGGGTKVEIKR",8.81,5.34e-05,6.06e+06,–
"humanized antibody 36G9.10-hz43 (antibody, human IgG1, kappa, N297A, V domains shown) VH: QVQLVQSGAEVKKPGASVKVSCKASGFNIKDTYIHWVRQAPGQGLEWIGRIDPANDNTNYAQKFQGRVTMTADTSINTAYMELSRLRSDDTAVYYCAQDYDGFAMDYWGQGTLVTVSS VL: DIQMTQSPSSLSASVGDRVTITCKASQDINKYITWFQQKPGKAPKLLIHYTSTLQPGVPSRFSGSGSGRDYTLTISSLQPEDFATYYCLQYDYLLTFGGGTKVEIKR",44.1,0.000255,5.77e+06,–
"humanized antibody 36G9.10-hz74 (antibody, human IgG1, kappa, N297A, V domains shown) VH: EVQLVQSGAEVKKPGATVKISCKASGFNIKDTYIHWVQQAPGKGLEWMGRIDPANDNTIYAEKFQGRVTITADTSTNTAYMELSSLRSEDTAVYYCAQDYDGFAMDYWGQGTLVTVSS VL: DIQMTQSPSSLSASVGDRVTITCKASQDINKYITWYQQKPGKAPKLLIYYTSTLQPGVPSRFSGSGSGTDFTFTISSLQPEDIATYYCLQYDYLLTFGGGTKVEIKR",7.98,5.16e-05,6.47e+06,–
"murine antibody 36G9.10 (antibody, mouse IgG1, V domains shown, also called 36G9.10 murine antibody; murine anti-human FXI/FXIa monoclonal antibody) VH: EVQLQQSGAELVKPGASVKLSCTASGFNIKDTYIHWVKQRPEQGLEWIGRIDPANDNTKYDPKFQGKATITADTSSNTAYLQLSSLTSEDSAVYYCAQDYDGFAMDYWGQGTSVTVSS VL: DIQMTQSPSSLSASLGGKVTITCKASQDINKYITWFQHKPGKGPRLLIHYTSTLQPGIPSRFSGSGSGRDYSFSISNLEPEDSATYYCLQYDYLLTFGGGTKLEIK",–,–,–,fold stronger affinity than 14E11 [7]: 1.7 times; fold stronger affinity than BAY-1213790 [8]: 2.5 times; Kd [9]: 480 pM; koff [9]: 0.00072 s⁻¹; kon [9]: 1.5e+06 M⁻¹ s⁻¹
"chimeric antibody 36G9.10-hz00 (antibody, human IgG1, kappa, N297A, V domains shown, Murine variable regions grafted to human IgG1 (N297A) and human kappa constant regions) VH: EVQLQQSGAELVKPGASVKLSCTASGFNIKDTYIHWVKQRPEQGLEWIGRIDPANDNTKYDPKFQGKATITADTSSNTAYLQLSSLTSEDSAVYYCAQDYDGFAMDYWGQGTSVTVSS VL: DIQMTQSPSSLSASLGGKVTITCKASQDINKYITWFQHKPGKGPRLLIHYTSTLQPGIPSRFSGSGSGRDYSFSISNLEPEDSATYYCLQYDYLLTFGGGTKLEIKR",3.66,2.39e-05,6.52e+06,–
"BAY-1213790 (antibody, V domains shown) VH: EVQLLESGGGLVQPGGSLRLSCAASGFTFSQYGMDWVRQAPGKGLEWVSGIGPSGGSTVYADSVKGRFTISRDNSKNTLYLQMNSLRAEDTAVYYCTRGGPYYYYGMDVWGQGTTVTVSS VL: DIQMTQSPSSLSASVGDRVTITCQASQDISNYLNWYQQKPGKAPKLLIYDASNLETGVPSRFSGSGSGTDFTFTISSLQPEDIATYYCQQADSFPVTFGGGTKVEIKR",374,0.00034,910000,"IC50 value (ng/mL), inhibition of the catalytic effect of FXIa on fluorescent substrate I-1575 [2]: 70 ng/mL; EC50 [4]: 6.16 ng/mL; Kd [9]: 1190 pM; koff [9]: 0.00109 s⁻¹; kon [9]: 918000 M⁻¹ s⁻¹"
